Laboratory results published in patent US20140154256A1 (published 2014).
Read-outs that look alike come from different tables or passages of the source.

How the values were obtained:
[1] = molecular target: T1, human IL-12 (human, UniProt P29459 23-219; P29460 23-328); test: SPR (Biacore)
T1 construct: also called hIL-12
T1 sequence (looked up) 1: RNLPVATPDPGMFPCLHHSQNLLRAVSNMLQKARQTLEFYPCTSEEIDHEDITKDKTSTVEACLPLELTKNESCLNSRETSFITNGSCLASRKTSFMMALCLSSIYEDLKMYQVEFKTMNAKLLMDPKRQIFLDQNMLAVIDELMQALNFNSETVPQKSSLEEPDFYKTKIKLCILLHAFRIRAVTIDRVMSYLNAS
T1 sequence (looked up) 2: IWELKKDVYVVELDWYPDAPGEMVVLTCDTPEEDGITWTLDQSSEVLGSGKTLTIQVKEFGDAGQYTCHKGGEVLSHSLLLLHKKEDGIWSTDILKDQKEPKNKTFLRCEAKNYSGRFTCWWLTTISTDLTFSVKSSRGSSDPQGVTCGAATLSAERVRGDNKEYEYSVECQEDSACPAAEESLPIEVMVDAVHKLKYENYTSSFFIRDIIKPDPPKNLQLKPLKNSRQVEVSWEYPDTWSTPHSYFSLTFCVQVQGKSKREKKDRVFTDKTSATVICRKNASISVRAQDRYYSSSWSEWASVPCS

[2] = molecular target: T1, human IL-12; test: SPR (Biacore); remark: listed apart in the source
[3] = molecular target: T1, human IL-12; test: cell-based or functional assay
[4] = molecular target: T1, human IL-12; test: cell-based or functional assay; remark: listed apart in the source
[5] = molecular target: T2, human IL-18 (human, UniProt Q14116 37-193); test: SPR (Biacore)
T2 construct: also called hIL-18

[6] = molecular target: T2, human IL-18; test: SPR (Biacore); remark: listed apart in the source
[7] = molecular target: T2, human IL-18; test: SPR (Biacore); remark: listed apart in the source
[8] = molecular target: T2, human IL-18; test: cell-based or functional assay
[9] = molecular target: T2, human IL-18; test: cell-based or functional assay; remark: listed apart in the source
[10] = molecular target: T2, human IL-18; test: cell-based or functional assay; remark: listed apart in the source
[11] = molecular target: T1, human IL-12; test: SPR (Biacore); remark: listed apart in the source
[12] = molecular target: T1, human IL-12; test: cell-based or functional assay; remark: listed apart in the source
[13] = molecular target: T3, mouse IL-1α (mouse, UniProt P01582 115-270); test: cell-based or functional assay
T3 sequence (looked up): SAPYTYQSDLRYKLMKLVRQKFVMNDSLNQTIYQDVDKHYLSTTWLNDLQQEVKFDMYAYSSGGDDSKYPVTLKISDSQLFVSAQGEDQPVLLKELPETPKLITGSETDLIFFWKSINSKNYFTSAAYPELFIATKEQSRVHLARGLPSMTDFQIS

[14] = molecular target: mouse IL-1β (mouse, UniProt P10749 118-269); test: cell-based or functional assay
[15] = molecular target: T4, human CD20 on human B cell line Raji (human, UniProt P11836 1-297); test: preliminary cell surface binding study
T4 construct: whole, on cells; also called hCD20
T4 sequence (looked up): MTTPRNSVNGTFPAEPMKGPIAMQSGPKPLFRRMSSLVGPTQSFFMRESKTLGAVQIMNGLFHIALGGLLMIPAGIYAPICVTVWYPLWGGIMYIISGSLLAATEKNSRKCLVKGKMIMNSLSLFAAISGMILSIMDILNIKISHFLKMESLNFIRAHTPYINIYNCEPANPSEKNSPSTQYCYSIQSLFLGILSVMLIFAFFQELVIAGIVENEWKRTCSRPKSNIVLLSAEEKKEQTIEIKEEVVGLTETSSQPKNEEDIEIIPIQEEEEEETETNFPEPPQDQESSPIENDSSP

[16] = molecular target: T4, human CD20 on human B cell line Raji; test: flow cytometry staining of Raji B cells, FITC goat anti-murine IgG
Excerpt: The anti-CD20/anti-CD3 DVD-Ig was generated as chimeric Ig i.e the constant region was a human constant region. For binding analysis, human T cell line Jurkat and B cell line Raji were blocked with human IgG and then stained with murine anti-hCD3 mAb OKT3, murine anti-hCD20 mAb 1F5, and anti-CD20/anti-CD3 DVD-Ig. Cells were then washed and stained with FITC-labeled goat anti-murine IgG (with no anti-hIgG cross-reactivity). Anti-CD20/CD3 DVD-Ig bound both T and B cells, whereas CD3 and CD20 mAbs bound only T or B cells, respectively. The amino acid sequence of CD20/CD3 DVD-Ig is disclosed in Table 25.

Chain of mouse IL-1β (P10749 118-269 limits assumed): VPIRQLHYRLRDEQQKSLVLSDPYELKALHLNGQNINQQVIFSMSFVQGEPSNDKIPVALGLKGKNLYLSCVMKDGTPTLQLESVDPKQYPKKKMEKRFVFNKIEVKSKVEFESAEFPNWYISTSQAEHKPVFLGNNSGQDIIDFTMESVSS

B1: ABT874 (fully human mAb against human IL-12p40) (antibody, V domains shown)
VH: QVQLVESGGGVVQPGRSLRLSCAASGFTFSSYGMHWVRQAPGKGLEWVAFIRYDGSNKYYADSVKGRFTISRDNSKNTLYLQMNSLRAEDTAVYYCKTHGSHDNWGQGTMVTVSS
VL: QSVLTQPPSVSGAPGQRVTISCSGSRSNIGSNTVKWYQQLPGTAPKLLIYYNDQRPSGVPDRFSGSKSGTSASLAITGLQAEDEADYYCQSYDRYTHPALLFGTGTKVTVLG
notes: Fully human mAb with a Vλ
For B1, the Kd [1] was 0.0647 nM, the Kd [2] was 0.065 nM and the “IC50 (M), IL-12-induced IFN-γ production by PHA blast cells (PBMC assay)” value [3] was 5e-12 M. The “Potency (IC50), PHA-Blast Assay” value [4] was 5 pM.

B2: ABT325 (fully human mAb against human IL-18) (antibody, V domains shown)
VH: EVQLVQSGTEVKKPGESLKISCKGSGYTVTSYWIGWVRQMPGKGLEWMGFIYPGDSETRYSPTFQGQVTISADKSFNTAFLQWSSLKASDTAMYYCARVGSGWYPYTFDIWGQGTMVTVSS
VL: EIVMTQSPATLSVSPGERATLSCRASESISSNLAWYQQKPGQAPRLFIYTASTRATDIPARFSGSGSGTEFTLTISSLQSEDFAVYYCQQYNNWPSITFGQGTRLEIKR
notes: Fully human mAb with a Vκ
In the case of B2, the Kd [5] is reported as 0.137 nM, the Kd [6] is reported as 0.137 nM and the Kd [7] is reported as 0.191 nM. The “IC50 (M), KG-1 bioassay (IFN-γ production)” value [8] was 3e-10 M, the “Potency (IC50), KG-1 Assay” value [9] was 300 pM and the “Potency (IC50, M), KG-1 bioassay (IL-18)” value [10] was 6.87e-11 M.

B3: anti-IL-12 mAb clone 1D4.1 (antibody, V domains shown)
VH: EVTLRESGPALVKPTQTLTLTCTFSGFSLSKSVMGVSWIRQPPGKALEWLAHIYWDDDKYYNPSLKSRLTISKDTSKNQVVLTMTNMDPVDTATYYCARRGIRSAMDYWGQGTTVTVSS
VL: DIVMTQSPDSLAVSLGERATINCKASQSVSNDVAWYQQKPGQPPKLLIYYASNRYTGVPDRFSGSGSGTDFTLTISSLQAEDVAVYYCQQDYNSPWTFGGGTKVEIKR
notes: Parent anti-IL-12 mAb
B3 was tested, and the Kd [11] was 0.12 nM and the “Potency (IC50, M), PBMC assay (IL-12)” value [12] was 4.18e-10 M.

B4: mIL-1α/β DVD-Ig (bispecific antibody, mouse IgG2a, kappa)
heavy: EVQLQQSGPELVKPGTSVKMSCKTSGYTFTSYVMHWVKQKPGQGLEWIGYIIPYNDNTKYNEKFKGKATLTSDKSSSTAYMELSSLTSEDSAVYYCARRNEYYGSSFFDYWGQGTTLTVSSAKTTAPSVYPLAPQVILKESGPGILQPSQTLSLTCSFSGFSLSTYGTAVNWIRQPSGKGLEWLAQIGSDDRKLYNPFLKSRITLSEDTSNSQVFLKITSVDTEDSATYYCANGVMEYWGLGTSVTVSSAKTTAPSVYPLAPVCGDTTGSSVTLGCLVKGYFPEPVTLTWNSGSLSSGVHTFPAVLQSDLYTLSSSVTVTSSTWPSQSITCNVAHPASSTKVDKKIEPRGPTIKPCPPCKCPAPNLLGGPSVFIFPPKIKDVLMISLSPIVTCVVVDVSEDDPDVQISWFVNNVEVHTAQTQTHREDYNSTLRVVSALPIQHQDWMSGKEFKCKVNNKDLPAPIERTISKPKGSVRAPQVYVLPPPEEEMTKKQVTLTCMVTDFMPEDIYVEWTNNGKTELNYKNTEPVLDSDGSYFMYSKLRVEKKNWVERNSYSCSVVHEGLHNHHTTKSFSRTPGK
light: DIQMTQSPASLSASVGETVTITCRGSGILHNYLVWYQQKQGKSPQLLVYSAKILADGVPSRFSGSGSGTQYSLKINSLQPEDFGSYYCQHFWSTPFTFGSGTKLEIKRADAAPTVSIFPPSIVMTQTPKFLLVSAGDRVTITCKASQSVNHDVAWYQQMPGQSPKLLIYFASNRYTGVPDRFTGSGYGTDFTFTISTVQAEDLAVYFCQQDYSSPYTFGGGTKLEIKRADAAPTVSIFPPSSEQLTSGGASVVCFLNNFYPKDINVKWKIDGSERQNGVLNSWTDQDSKDSTYSMSSTLTLTKDEYERHNSYTCEATHKTSTSPIVKSFNRNEC
For B4, the “IC50 (M), in vitro potency (assay not described)” value [13] was 2e-09 M and the “IC50 (M), in vitro potency (assay not described)” value [14] was 8e-10 M.

B5: anti-CD20/anti-CD3 DVD-Ig (CD20CD3DVD-Ig) (bispecific antibody, human IgG1, kappa)
heavy: not shown
light: QIVLSQSPAILSASPGEKVTMTCRASSSLSFMHWYQQKPGSSPKPWIYATSNLASGVPARFSGSGSGTSYSLTISRVEAEDAATYFCHQWSSNPLTFGAGTKLELKRADAAPTVSIFPPQIVLTQSPAIMSASPGEKVTMTCSASSSVSYMNWYQQKSGTSPKRWIYDTSKLASGVPAHFRGSGSGTSYSLTISGMEAEDAATYYCQQWSSNPFTFGSGTKLEINRTVAAPSVFIFPPSDEQLKSGTASVVCLLNNFYPREAKVQWKVDNALQSGNSQESVTEQDSKDSTYSLSSTLTLSKADYEKHKVYACEVTHQGLSSPVTKSFNRGEC
notes: VCD20-linker-VCD3-constant; chimeric Ig with human constant region; also called Anti-CD20/CD3 DVD-Ig
B5: binds [15].

B6: murine anti-human-CD20 mAb clone 5F1 (antibody, V domains shown)
VH: QVQLRQPGAELVKPGASVKMSCKASGYTFTSYNMHWVKQTPGQGLEWIGAIYPGNGDTSYNQKFKGKATLTADKSSSTAYMQLSSLTSEDSAVYYCARSHYGSNYVDYFDYWGQGTTLTVSS
VL: QIVLSQSPAILSASPGEKVTMTCRASSSLSFMHWYQQKPGSSPKPWIYATSNLASGVPARFSGSGSGTSYSLTISRVEAEDAATYFCHQWSSNPLTFGAGTKLELKR
notes: Murine mAb
B6: binds [16].
